What was measured:
Assay in all cases: cell-based or functional assay
[1] = molecular target: HIV-1 Env of pseudovirus ZM135M.PE10a (HIV-1)
[2] = molecular target: JR-CSF N362A (HIV-1) (UniProt P20871)
[3] = molecular target: JR-CSF R327A (HIV-1) (UniProt P20871)
[4] = molecular target: HIV-1 envelope (Env) of pseudovirus 0815.v3.c3 (HIV-1)
[5] = molecular target: HIV-1 envelope (Env) of pseudovirus 1012_11_TC21_3257 (HIV-1)
[6] = molecular target: HIV-1 envelope (Env) of pseudovirus 191955_A11 (HIV-1)
[7] = molecular target: HIV-1 envelope (Env) of pseudovirus 231965.c01 (HIV-1)
[8] = molecular target: HIV-1 envelope (Env) of pseudovirus 246F C1G (HIV-1)
[9] = molecular target: HIV-1 envelope (Env) of pseudovirus 3415.v1.c1 (HIV-1)
[10] = molecular target: HIV-1 envelope (Env) of pseudovirus 3817.v2.c59 (HIV-1)
[11] = molecular target: HIV-1 envelope (Env) of pseudovirus 6240_08_TA5_4622 (HIV-1)
[12] = molecular target: HIV-1 envelope (Env) of pseudovirus 6480.v4.c25 (HIV-1)
[13] = molecular target: HIV-1 envelope (Env) of pseudovirus 6540.v4.c1 (HIV-1)
[14] = molecular target: HIV-1 envelope (Env) of pseudovirus 6952.v1.c20 (HIV-1)
[15] = molecular target: HIV-1 envelope (Env) of pseudovirus 89-F1_2_25 (HIV-1)
[16] = molecular target: HIV-1 envelope (Env) of pseudovirus BJOX010000.06.2 (HIV-1)
[17] = molecular target: HIV-1 envelope (Env) of pseudovirus BJOX025000.01.1 (HIV-1)
[18] = molecular target: HIV-1 envelope (Env) of pseudovirus CAP210.2.00.E8 (HIV-1)
[19] = molecular target: HIV-1 envelope (Env) of pseudovirus CNE17 (HIV-1)
[20] = molecular target: HIV-1 envelope (Env) of pseudovirus CNE20 (HIV-1)
[21] = molecular target: HIV-1 envelope (Env) of pseudovirus CNE21 (HIV-1)
[22] = molecular target: HIV-1 envelope (Env) of pseudovirus CNE5 (HIV-1)
[23] = molecular target: HIV-1 envelope (Env) of pseudovirus CNE53 (HIV-1)
[24] = molecular target: HIV-1 envelope (Env) of pseudovirus Ce0393_C3 (HIV-1)
[25] = molecular target: HIV-1 envelope (Env) of pseudovirus Ce0682_E4 (HIV-1)
[26] = molecular target: HIV-1 envelope (Env) of pseudovirus Ce1176_A3 (HIV-1)
[27] = molecular target: HIV-1 envelope (Env) of pseudovirus Ce2010_F5 (HIV-1)
[28] = molecular target: HIV-1 envelope (Env) of pseudovirus Du156.12 (HIV-1)
[29] = molecular target: HIV-1 envelope (Env) of pseudovirus P1981_C5_3 (HIV-1)
[30] = molecular target: HIV-1 envelope (Env) of pseudovirus Q259.d2.17 (HIV-1)
[31] = molecular target: HIV-1 envelope (Env) of pseudovirus Q769.d22 (HIV-1)
[32] = molecular target: HIV-1 envelope (Env) of pseudovirus Q842.d12 (HIV-1)
[33] = molecular target: HIV-1 envelope (Env) of pseudovirus R2184.c04 (HIV-1)
[34] = molecular target: HIV-1 envelope (Env) of pseudovirus REJO4541.67 (HIV-1)
[35] = molecular target: HIV-1 envelope (Env) of pseudovirus T251-18 (HIV-1)
[36] = molecular target: HIV-1 envelope (Env) of pseudovirus TRJO4551.58 (HIV-1)
[37] = molecular target: HIV-1 envelope (Env) of pseudovirus YU2_N160K (HIV-1) (UniProt P35961)
[38] = molecular target: HIV-1 Env of pseudovirus ZM247v1 (Rev-) (HIV-1)

With 354BG8 (antibody) the IC50 in TZM-bl assay [1] was 0.061 µg/mL, the IC80 in TZM-bl assay [1] was 0.263 µg/mL and the IC50 in TZM-bl assay [2] was 0.008 µg/mL. It also gave an IC50 in TZM-bl assay [3] of 0.005 µg/mL.
With BG1 (antibody) the IC50 in TZM-bl assay [4] was > 30 µg/mL, the IC80 in TZM-bl assay [4] was > 30 µg/mL and the IC50 in TZM-bl assay [5] was > 30 µg/mL. For the same substance, the IC80 in TZM-bl assay [5] was > 30 µg/mL, the IC50 in TZM-bl assay [6] was 0.008 µg/mL and the IC80 in TZM-bl assay [6] was 0.018 µg/mL. For the same substance, the IC50 in TZM-bl assay [7] was > 30 µg/mL, the IC80 in TZM-bl assay [7] was > 30 µg/mL and the IC50 in TZM-bl assay [8] was > 30 µg/mL. For the same substance, the IC80 in TZM-bl assay [8] was > 30 µg/mL, the IC50 in TZM-bl assay [9] was 14.4 µg/mL and the IC80 in TZM-bl assay [9] was > 30 µg/mL. The IC50 in TZM-bl assay [10] was 11.1 µg/mL, the IC80 in TZM-bl assay [10] was > 30 µg/mL and the IC50 in TZM-bl assay [11] was > 30 µg/mL. For the same substance, the IC80 in TZM-bl assay [11] was > 30 µg/mL, the IC50 in TZM-bl assay [12] was > 30 µg/mL and the IC80 in TZM-bl assay [12] was > 30 µg/mL. The IC50 in TZM-bl assay [13] was > 30 µg/mL, the IC80 in TZM-bl assay [13] was > 30 µg/mL and the IC50 in TZM-bl assay [14] was > 30 µg/mL. The IC80 in TZM-bl assay [14] was > 30 µg/mL, the IC50 in TZM-bl assay [15] was > 30 µg/mL and the IC80 in TZM-bl assay [15] was > 30 µg/mL. The IC50 in TZM-bl assay [16] was > 30 µg/mL, the IC80 in TZM-bl assay [16] was > 30 µg/mL and the IC50 in TZM-bl assay [17] was > 30 µg/mL. For the same substance, the IC80 in TZM-bl assay [17] was > 30 µg/mL, the IC50 in TZM-bl assay [18] was > 30 µg/mL and the IC80 in TZM-bl assay [18] was > 30 µg/mL. For the same substance, the IC50 in TZM-bl assay [19] was > 30 µg/mL, the IC80 in TZM-bl assay [19] was > 30 µg/mL and the IC50 in TZM-bl assay [20] was 4.26 µg/mL. The IC80 in TZM-bl assay [20] was > 30 µg/mL, the IC50 in TZM-bl assay [21] was > 30 µg/mL and the IC80 in TZM-bl assay [21] was > 30 µg/mL. The IC50 in TZM-bl assay [22] was 0.351 µg/mL, the IC80 in TZM-bl assay [22] was 1.28 µg/mL and the IC50 in TZM-bl assay [23] was 1.32 µg/mL. The IC80 in TZM-bl assay [23] was 7.47 µg/mL, the IC50 in TZM-bl assay [24] was > 30 µg/mL and the IC80 in TZM-bl assay [24] was > 30 µg/mL. The IC50 in TZM-bl assay [25] was > 30 µg/mL, the IC80 in TZM-bl assay [25] was > 30 µg/mL and the IC50 in TZM-bl assay [26] was 0.031 µg/mL. For the same substance, the IC80 in TZM-bl assay [26] was 0.165 µg/mL, the IC50 in TZM-bl assay [27] was > 30 µg/mL and the IC80 in TZM-bl assay [27] was > 30 µg/mL. The IC50 in TZM-bl assay [28] was 1.52 µg/mL, the IC80 in TZM-bl assay [28] was 6.03 µg/mL and the IC50 in TZM-bl assay [29] was > 30 µg/mL. The IC80 in TZM-bl assay [29] was > 30 µg/mL, the IC50 in TZM-bl assay [30] was > 30 µg/mL and the IC80 in TZM-bl assay [30] was > 30 µg/mL. The IC50 in TZM-bl assay [31] was > 30 µg/mL, the IC80 in TZM-bl assay [31] was > 30 µg/mL and the IC50 in TZM-bl assay [32] was 1.4 µg/mL. The IC80 in TZM-bl assay [32] was 4.3 µg/mL, the IC50 in TZM-bl assay [33] was > 30 µg/mL and the IC80 in TZM-bl assay [33] was > 30 µg/mL. The IC50 in TZM-bl assay [34] was 0.342 µg/mL, the IC80 in TZM-bl assay [34] was 1.66 µg/mL and the IC50 in TZM-bl assay [35] was 3.59 µg/mL. For the same substance, the IC80 in TZM-bl assay [35] was 18 µg/mL, the IC50 in TZM-bl assay [36] was > 30 µg/mL and the IC80 in TZM-bl assay [36] was > 30 µg/mL. The IC50 in TZM-bl assay [37] was > 30 µg/mL and the IC80 in TZM-bl assay [37] was > 30 µg/mL.
BG18 IgG (354BG18) (antibody) showed an IC50 in TZM-bl assay [38] of 1.45 µg/mL and an IC80 in TZM-bl assay [38] of 8.72 µg/mL.
